Consider seven molecules from US6899878 (GENETICS INSTITUTE, dated 2005).

To fix the notation:
T1: IL-1-R intracellular ligand protein encoded by clone 14w (interaction trap prey) (human, UniProt P17655 450-700)
T1 construct: Prey fusion expressed from pJG4-5 in yeast
T1 sequence: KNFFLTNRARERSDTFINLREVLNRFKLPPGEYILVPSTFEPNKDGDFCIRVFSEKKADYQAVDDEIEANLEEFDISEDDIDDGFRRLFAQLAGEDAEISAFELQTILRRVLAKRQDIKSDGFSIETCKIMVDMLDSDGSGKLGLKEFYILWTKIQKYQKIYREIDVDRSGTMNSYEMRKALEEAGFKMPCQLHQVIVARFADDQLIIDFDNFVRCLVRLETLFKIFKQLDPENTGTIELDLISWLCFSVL

T2: IL-1-R intracellular ligand protein encoded by clone 19w (interaction trap prey) (human, UniProt Q92626 1304-1479)
T2 construct: Prey fusion expressed from pJG4-5 in yeast; believed to be a partial clone of a longer protein
T2 sequence: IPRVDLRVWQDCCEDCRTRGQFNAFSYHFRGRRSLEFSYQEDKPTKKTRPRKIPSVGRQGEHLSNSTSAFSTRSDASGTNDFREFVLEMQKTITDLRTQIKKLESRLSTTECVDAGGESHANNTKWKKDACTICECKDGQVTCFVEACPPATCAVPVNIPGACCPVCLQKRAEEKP

B1: IL-1-R intracellular ligand protein encoded by clone 31w (interaction trap prey) (other, not shown: large carriers)
chain: KKGGKTEQDGYQKPTNKHFTQSPKKSVADLLGSFEGKRRLLLITAPKAENNMYVQQRDEYLESFCKMATRKISVITIFGPVNNSTMKIDHFQLDNEKPMRVVDDEDLVDQRLISELRKEYGMTYNDFFMVLTDVDLRVKQYYEVPITMKSVFDLIDTFQSRIKDMEKQKKEGIVCKEEVGGVLELFPINGSSVVEREDVPAHLVKDIRNYFQVSPEYFSMLLVGKDGNVKSWYPSPMWSMVIVYDLIDSMQLRRQEMAIQQSLGMRCQKMSMQAMVTIVTTKDTRMVTRMTTVIMRVITMDTLTEQKYVTLDSASFLCSC
notes: Prey fusion expressed from pJG4-5 in yeast; believed to be a partial clone of a longer protein
B2: bicoid (unrelated bait) (other, UniProt P09081 2-160, looked up)
chain: AQPPPDQNFYHHPLPHTHTHPHPHSHPHPHSHPHPHHQHPQLQLPPQFRNPFDLLFDERTGAINYNYIRPYLPNQMPKPDVFPSEELPDSLVMRRPRRTRTTFTSSQIAELEQHFLQGRYLTAPRLADLSAKLALGTAQVKIWFKNRRRRHKIQSDQHK
B3: IL-1 receptor p80 (type I) amino acids 477 to 527, wild-type bait from plasmid EG202-IL1R (477-527) (receptor, human, UniProt P14778 494-544, looked up)
chain: QDYEKMPESIKFIKQKHGAIRWSGDFTQGPQSAKTRFWKNVRYHMPVQRRS
modifications: also: fused to LexA (pEG202 bait), residues not given here
notes: range 477-527; positions may be shifted against the UniProt entry; also called WT; original bait; not shown: LexA, fusion partner of baits made in vector pEG202
B4: IL-1 receptor p80 (477-527) mutant bait R518K (receptor, human, UniProt P14778 494-544, looked up)
chain: B3 chain with R42K
modifications: also: fused to LexA (pEG202 bait), residues not given here
notes: range 477-527; not shown: LexA, fusion partner of baits made in vector pEG202
B5: IL-1 receptor p80 (477-527) mutant bait W514A (receptor, human, UniProt P14778 494-544, looked up)
chain: B3 chain with W38A
modifications: also: fused to LexA (pEG202 bait), residues not given here
notes: as for B4
B6: IL-1 receptor p80 (477-527) mutant bait Y519S (receptor, human, UniProt P14778 494-544, looked up)
chain: B3 chain with Y43S
modifications: also: fused to LexA (pEG202 bait), residues not given here
notes: as for B4
B7: IL-1 receptor p80 (477-527) mutant bait K515R (receptor)
chain: B3 chain with K39R
modifications: also: fused to LexA (pEG202 bait), residues not given here

Assay [1] has as its target B2. Briefly: yeast interaction trap, bait specificity test. From the text: (§1) A WI38 cDNA library was transformed into the reporter strain (EGY48/pSH18-34) containing the bait plasmid EG202-IL1R (477–527). 1.3 million primary transformants were harvested and 7 million colonies were screened. 192 galactose-dependent colonies were isolated. Among these, 51 clones were bait specific (i.e., interacted specifically with the original bait, but not with an unrelated bait, bicoid). These clones were then subjected to DNA sequence analysis. Clones 19w was isolated 6, times, clone 31w twice and clone 14w once.

Assay [2] addresses B7. As to the kind of experiment: yeast interaction trap, LacZ blueness on plates. The protocol: (§2) Mutations that abolish IL-1R signaling ere introduced into the original bait plasmid, EG202-IL-1R (477–527) (with following amino acid substitutions: F513A, W514A, K515R, R518K, and Y519S) and the ability of the IL-1R intracellular ligands to interact with these mutant proteins was tested in the interaction trap. EGY48 carrying pSH18-34 (lexAop-LacZ) were cotransformed with two plasmids: one carrying 14w, 19w or 31w; the other with bait, EG202-IL1R (477–527), either wild-type or one of the mutants, transformants were then streaked onto CM ura⁻his⁻trp⁻ plates containing galactose/raffinose and β-gal. The strength of interaction (as indicated by the number of "+" signs) was judged by the blueness in the plates (indicator of LacZ expression).

For assay [3], the target named is B3. As to the kind of experiment: yeast interaction trap, LacZ blueness on plates. As for the experimental part:
as §2

The target in assay [4] is T1, IL-1-R intracellular ligand protein …. As to the kind of experiment: yeast interaction trap, bait specificity test.
Description: as §1

For assay [5], the target named is T2, IL-1-R intracellular ligand protein …. Briefly: yeast interaction trap, bait specificity test.
Description: as §1

Assay [6] addresses T1, IL-1-R intracellular ligand protein …. As to the kind of experiment: yeast interaction trap, LacZ blueness on plates. The protocol:
as §2

The target of assay [7] is T2, IL-1-R intracellular ligand protein …. Briefly: yeast interaction trap, LacZ blueness on plates. As for the experimental part: as §2

Numbering of substitutions follows the chain as printed. Ends that are not written are not given here.

For the molecule B1, the binding result in assay [1] was “no binding”; in assay [2], “binds”; in assay [3], “binds”. As to B2, the binding result in assay [4] and in assay [5] was “no binding” each time. As to B3, the binding result in assay [6] and in assay [7] was “binds” each time.

B4: the binding result in assay [6] is “binds”. For the molecule B5, the binding result in assay [6] and in assay [7] was “binds” in each case. As to B6, the binding result in assay [6] is listed as “binds”. Consider B7, for which the binding result in assay [6] and in assay [7] was “binds” each time.
